Measured values published in US20150239975A1 (KOREA RESEARCH INSTITUTE OF BIOSCIENCE AND BIOTECHNOLOGY, published 2015).

T1: transmembrane 4 L six family member 5 (TM4SF5) protein (human, UniProt O14894 1-197)
T1 sequence (looked up): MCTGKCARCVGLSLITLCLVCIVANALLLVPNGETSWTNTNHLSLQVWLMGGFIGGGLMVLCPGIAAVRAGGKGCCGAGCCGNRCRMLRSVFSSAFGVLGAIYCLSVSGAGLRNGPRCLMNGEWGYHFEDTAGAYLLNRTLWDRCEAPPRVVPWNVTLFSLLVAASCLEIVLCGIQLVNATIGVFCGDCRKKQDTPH


Molecular target: T1, transmembrane 4 L six family member 5 …
Assay: cell-based or functional assay

| Protein | inhibition of invasion of TM4SF5-overexpressing liver cancer cells (Tp), transwell assay, 20 µg/mL antibody [%] | inhibition of growth of TM4SF5-overexpressing liver cancer cells (Tp, T16) in the absence of serum, 20 µg/mL antibody [%] | inhibition of infiltration of TM4SF5-overexpressing liver cancer cells (Tp), transwell assay, 20 µg/mL antibody [%] |
| --- | --- | --- | --- |
| monoclonal antibody #1 (scFv-Fc form) (Fc fusion, not shown: a dimerising Fc or GST) scFv: EVQLQQFGAELVRPGASVTLSCKASGYTFTDYEMHWVKQTPVHGLEWIGAIDPETGGTAYNQKFKGKAILTADKSSSTAYMELRSLTSEDSAVYFCARLTLFYGNYDWPFDVWGTGTSVTVSSADIVMTQSQKFMSTSVGDRVSITCKASQNVRTAVAWYQQKPGQSPKLLIYWASTRHTGVPDRFTGSGSGTDFTLTISNVQSEDLADYFCQQYSSYPFTFGSGTKLEIK | 83 | – | – |
| monoclonal antibody #88 (scFv-Fc form) (Fc fusion, not shown: a dimerising Fc or GST) scFv: QVQLQQFGAELVRPGASVKLSCKASGYTFTDYEMHWVKQTPVHGLEWIGAIDPETGGTAYNQKFKGKATLTADKSSSTAYMELRSLTSEDSAVYYCTPNYWYFDVWGAGTSVTVSSADAVVTQTPLSLPVSLGDQASISCRSSQSLVHSNGNTYLHWYLQKPGQSPKLLIYKVSNRFSGVPDRFSGSGSGTDFTLKISRVEAEDLGVYFCSQSTHVPYTFGGGTKLELK | – | ~50 | 73 |
| monoclonal antibody #92 (scFv-Fc form) (Fc fusion, not shown: a dimerising Fc or GST) scFv: EVQLQQSVADLVRPGASVKLSCTASGFNIENTYMHWVKQRPEQGLEWIGRIDPANGNTKYAPKFQDKATITADTSSNTAYLQLSSLTSEDTAVYYCTSLGAYWGQGTLVTVSAADAVLTQTPLSLPVSLGDQASISCRSSQSIVHSNGNTYLEWYLQKPGQSPKLLIYKVSNRFSGVPDRFSGSGSGTDFTLKISRVEAEDLGVYFCSQSTHVPLTFGAGTKLEIK | – | ~50 | 46 |
| monoclonal antibody #27 (scFv-Fc form) (Fc fusion, not shown: a dimerising Fc or GST) scFv: QVQLQQFGAELVRPGASVTLSCKASGYTFTDYEMHWVKQTPVHGLEWIGAIDPETGGTAYNQKFKGKAILTADKSSSTAYMELRSLTSEDSAVYYCTRPYLGYWGQGTTVTVSSADAVVTQTPLSLPVSLGDQASISCRSSQSLVHSNGNTYLHWYLQKPGQSPKLLIYKVSNRFSGVPDRFSGSGSGTDFTLKISRVEAEDLGVYYCFQGSHIPLTFGAGTKLELK | 56 | – | – |
| monoclonal antibody #79 (scFv-Fc form) (Fc fusion, not shown: a dimerising Fc or GST) scFv: GVQLQQSGAELVRPGASVKLSCKASGYTFTDYEMHWVKQTPVHGLEWIGAIDPETGGTAYNQKFKGKAILTADKSSSTAYMELRSLTSEDSAVYYCTVYGLAYWGQGTLVTVSAADVVMTQTPLSLPVSLGDQASISCRSSQSLVHSNGNTYLHWYLQKPGQSPKLLIYKVSNRFSGVPDRFSGSGSGTDFTLKISRVEAEDLGVYFCSQNTHVPYTFGGGTKLELK | 49 | – | – |
